Source: US20230181640A1 (SHANGHAI ABELZETA, published 2023)
Where a chain is given by its changes, count along the chain named.

T1: hBCMA-ECD-Fc (fusion protein of human BCMA extracellular domain Met1-Ala54 and human IgG1 Fc fragment … (human, UniProt Q02223 1-54))
T1 construct: range 1-54; also the immunogen; also called soluble extracellular domain of human BCMA; not shown: human IgG1 Fc fragment, Pro100-Lys330
T1 sequence (looked up): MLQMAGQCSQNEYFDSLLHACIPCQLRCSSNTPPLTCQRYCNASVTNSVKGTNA

T2: human BCMA on cells (L-BCMA+, K562-BCMA+, A549-BCMA-1D6) (human, UniProt Q02223 1-184)
T2 construct: whole, on cells; the cell line of each assay is named under assay; also called L-BCMA-1E6-A4; K562-BCMA-B22D8
T2 sequence (looked up): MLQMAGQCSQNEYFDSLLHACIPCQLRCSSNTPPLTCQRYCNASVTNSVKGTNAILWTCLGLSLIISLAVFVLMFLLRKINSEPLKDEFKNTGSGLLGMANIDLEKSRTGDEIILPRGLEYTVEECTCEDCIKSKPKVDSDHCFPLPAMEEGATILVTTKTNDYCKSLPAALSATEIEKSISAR

T3: Recombinant human TACI/TNFRSF13B Fc chimeric protein, CF (hTACI-ECD-Fc) (human, UniProt O14836 1-165)
T3 construct: extracellular domain; bought reagent; not shown: Fc part of the bought chimera is not described
T3 sequence (looked up): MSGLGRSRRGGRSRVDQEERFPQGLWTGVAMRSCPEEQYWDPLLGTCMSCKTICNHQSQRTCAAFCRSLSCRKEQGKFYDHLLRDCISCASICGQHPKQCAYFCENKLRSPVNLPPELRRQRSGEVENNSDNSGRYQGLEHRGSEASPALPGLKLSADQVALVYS

B1: hybridoma antibody 99B3G3 (mAb002) (antibody, IgG1, V domains shown)
VH: EVQLQQSGPVLVKPGASVKMSCKASGYTFTDLYMNWVKQSHGKSLEWIGVINPYNGGTSYNQKFKAKATLTVDKSSITAYMELNSLTSEDSAVYYCARGDSIYVMDYWGQGTSVTVSS
VL: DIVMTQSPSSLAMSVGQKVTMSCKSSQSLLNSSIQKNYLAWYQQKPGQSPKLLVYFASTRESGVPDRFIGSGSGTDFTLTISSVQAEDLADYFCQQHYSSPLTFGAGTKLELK
notes: murine hybridoma antibody, IgG1,κ; re-named CP02; also called CP02
B2: hybridoma clone 97B8G8D12 (antibody, V domains shown)
VH: B1 VH
VL: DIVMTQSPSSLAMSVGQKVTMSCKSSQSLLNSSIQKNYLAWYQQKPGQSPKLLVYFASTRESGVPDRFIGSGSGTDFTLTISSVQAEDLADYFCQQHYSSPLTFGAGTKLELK
notes: murine hybridoma supernatant; gave no antibody in small-batch production
B3: hybridoma antibody 100H2D12C6 (mAb009) (antibody, IgG1, V domains shown)
VH: B1 VH
VL: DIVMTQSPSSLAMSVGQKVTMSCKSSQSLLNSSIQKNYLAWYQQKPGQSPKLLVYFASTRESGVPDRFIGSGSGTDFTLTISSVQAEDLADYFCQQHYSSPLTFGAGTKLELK
notes: murine, IgG1,κ
B4: chimeric antibody of hybridoma 99B3G3 (antibody, human IgG1, kappa, V domains shown)
VH: B1 VH
VL: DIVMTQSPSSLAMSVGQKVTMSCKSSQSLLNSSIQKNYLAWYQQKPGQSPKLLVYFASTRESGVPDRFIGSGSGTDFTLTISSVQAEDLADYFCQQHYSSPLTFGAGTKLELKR
notes: IgG1,κ chimeric antibody, HEK 293T supernatant
B5: hybridoma clone 107A9A4D2 (antibody, V domains shown)
VH: B1 VH with V37L, S44R, A66G, I77S, E82D, V114F
VL: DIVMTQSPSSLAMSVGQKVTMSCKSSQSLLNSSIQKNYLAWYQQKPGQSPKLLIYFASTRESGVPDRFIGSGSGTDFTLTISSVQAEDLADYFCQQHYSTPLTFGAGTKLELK
notes: murine hybridoma supernatant
B6: chimeric antibody 107A9A4D2VH/VL-2 (antibody, human IgG1, kappa, V domains shown)
VH: B1 VH with V37L, S44R, A66G, I77S, E82D, V114F
VL: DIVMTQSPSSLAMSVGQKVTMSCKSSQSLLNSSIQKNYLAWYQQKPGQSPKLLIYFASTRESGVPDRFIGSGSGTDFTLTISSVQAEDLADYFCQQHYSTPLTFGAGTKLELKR
notes: IgG1,κ chimeric antibody, HEK 293T supernatant; also called 107A9A4D2VH paired with 107A9A4D2VL-2
B7: hybridoma antibody 151A9A4 (mAb012) (antibody, IgG2b, V domains shown)
VH: B1 VH with L32Y, Y33S, M34L, I51V, S59T, A66G, I77S, G99P, Y107S
VL: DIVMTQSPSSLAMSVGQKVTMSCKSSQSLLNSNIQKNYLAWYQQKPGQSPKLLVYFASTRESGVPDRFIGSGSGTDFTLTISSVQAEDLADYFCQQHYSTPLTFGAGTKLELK
notes: murine, IgG2b,κ; re-named CP08; also called CP08
B8: hybridoma antibody 143D6F4 (mAb011) (antibody, IgG2b, V domains shown)
VH: B1 VH with L32Y, Y33S, M34L, I51V, Y60H, A66G, I77S, G99P
VL: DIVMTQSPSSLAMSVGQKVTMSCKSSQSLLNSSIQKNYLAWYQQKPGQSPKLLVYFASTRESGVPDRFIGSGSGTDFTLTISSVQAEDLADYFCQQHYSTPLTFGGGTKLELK
notes: murine, IgG2b,κ; re-named CP07; also called CP07
B9: hybridoma clone 107A11F1B7 (antibody, V domains shown)
VH: B1 VH with V37L, S44R, A66G, I77S, E82D, V114F
VL: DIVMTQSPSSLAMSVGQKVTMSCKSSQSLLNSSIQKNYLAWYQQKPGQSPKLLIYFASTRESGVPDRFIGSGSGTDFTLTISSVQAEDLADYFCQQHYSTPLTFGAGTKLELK
notes: murine hybridoma supernatant; re-named CP04; also called CP04
B10: hybridoma antibody 113B3F12 (mAb008) (antibody, IgG2b, V domains shown)
VH: EVQLQQSGPVLVKPGASVKMSCKASGYTFTDYYMNWVKQSHGKSLEWIGVINPYNGGTDYNQKFKGKATLTVDKSSSTAYMELNSLTSEDSAVYYCARRRESYGTSYQGAYFDSWGQGTTLTVSS
VL: DIQMTQTTSSLSASLGDRVTISCRASQDISNYLNWYQQKPDGTVKLLIYYTSRLHSGVPSRFSGSGSGTDYSLSISDLEQEDIATYFCQQVITLPWTFGGGTKLEIK
notes: murine hybridoma antibody, IgG2b,κ
B11: chimeric antibody of hybridoma 113B3F12 (antibody, human IgG1, kappa, V domains shown)
VH: B10 VH
VL: DIQMTQTTSSLSASLGDRVTISCRASQDISNYLNWYQQKPDGTVKLLIYYTSRLHSGVPSRFSGSGSGTDYSLSISDLEQEDIATYFCQQVITLPWTFGGGTKLEIKR
notes: as for B4
B12: hybridoma antibody 152D8E8 (mAb013) (antibody, IgG1, V domains shown)
VH: QVTLKESGPGILQSSQTLSLTCSFSGFSLNTSGMGVNWIRQSSGKDLEWLAHIYWNDDKRYNPSLKSRLTISKDTSRNQVFLRITSVDATDTATYFCCRSRLSFDYWGHGTTLTVSS
VL: DIKMTQSPSSMYVSLGERVTITCKASQDINRNLSWFQQKPGKSPKTLIYRANRLVDGVPLRFSGSGSGQDYSLTISSLEYEDMGIYYCLQYDEFPRTFGGGTKLEIK
notes: murine, IgG1,κ; re-named CP09; also called CP09
B13: hybridoma antibody 109C5F3C1 (mAb010) (antibody, V domains shown)
VH: EVQLQQSGPVLVKPGASVKMSCKVSGYTFTDYYMNWVKQSHGKSLEWIGVITPYNGANRYNQKFKGKATLTVDKSSSTAYMEVSSLTSEDSAVYYCARGDSIYVMDYWGQGTSVIVSS
VL: not shown
notes: murine; re-named CP06; also called CP06
B14: hybridoma antibody 6G10-1D7 (mAb001) (antibody, IgG1, V domains shown)
VH: EVQLQQSGPELVKPGASMKISCKASDYSFTDYIMTWVKQSHGKNLEWIGLINPYNGGTTYNQKFKDKATFTVDKSSTTAYMDLLSLTSEDSAVYYCARRGITTDYYTMDYWGQGTSVTVSS
VL: DIVMTQSQRFMSTSVGDRVSITCKASQSVGTAVAWYQQTPGQFPKLLIYSTSNRYTGVPDRFTGSGSGTDFTLTISNMQSEDLADYFCQQYSTYPLTFGSGTKLELK
notes: tested as supernatant and purified; also called CP01
B15: chimeric antibody of hybridoma 6G10-1D7 (antibody, human IgG1, kappa, V domains shown)
VH: B14 VH
VL: DIVMTQSQRFMSTSVGDRVSITCKASQSVGTAVAWYQQTPGQFPKLLIYSTSNRYTGVPDRFTGSGSGTDFTLTISNMQSEDLADYFCQQYSTYPLTFGSGTKLELKR
notes: as for B4
B16: hybridoma antibody 102A12H6 (mAb003) (antibody, IgG1, V domains shown)
VH: EVQLQQSGPELVKPGASVKISCKASGYSFTGYYMNWVKQSPEKSLEWIGEINSSTGGTTYNQKFKAKATMTVDKSSNTAYMELKSLTSEDSAVYYCRYYGSDWHFDVWGTGTTVTVSS
VL: QIVLTQSPALMSASPGEKVTMTCSASSSVSYMYWYQQKPRSSPKPWIYLTSSLASGVPARFSGSGSGTSYSLTISTMEAEDAATYYCQQWSSDPLTFGAGTKLELK
notes: murine hybridoma antibody, IgG1,κ
B17: hybridoma antibody 105C10F1 (mAb004) (antibody, IgG2b, V domains shown)
VH: EVKLLQSGGGLVQPGGSLKLSCAASGIDFSRYWMSWVRRAPGKGLEWIGEINPDSSTINYAPSLKDKFIISRDAAKNTLYLQMSKVRSEDTALYYCATLYYDYDGDYAMDYWGQGTSVTVSS
VL: DIVMTPSQKFMSTSVGDRVSVTCKASQNVGTNVAWYQQKPGQSPKALIYSASYRYSGVPDRFTGSGSGTDFTLTISNVQSEDLAEYFCQHYNSYPFTFGSGTKLEIK
notes: murine hybridoma antibody, IgG2b,κ; re-named CP03; also called CP03
B18: chimeric antibody of hybridoma 105C10F1 (antibody, human IgG1, kappa, V domains shown)
VH: B17 VH
VL: DIVMTPSQKFMSTSVGDRVSVTCKASQNVGTNVAWYQQKPGQSPKALIYSASYRYSGVPDRFTGSGSGTDFTLTISNVQSEDLAEYFCQHYNSYPFTFGSGTKLEIKR
notes: as for B4

Experiments:
[1] = target: T1, hBCMA-ECD-Fc (fusion protein of human …); experiment: ELISA, hybridoma supernatant
[2] = target: T4, cynoBCMA-ECD-Fc (machin BCMA extracellular domain Fc fusion) (machin); experiment: ELISA, hybridoma supernatant
T4 construct: extracellular domain; also called soluble extracellular domain of machin BCMA

[3] = target: T5, Recombinant hFc fusion protein control (NC-Fc); experiment: ELISA, hybridoma supernatant
T5 construct: negative control antigen of the screens; also called NC-hFc

[4] = target: T2, human BCMA on cells (L-BCMA+, …); experiment: FACS, hybridoma supernatant, BCMA+ cells; further: test concentration or dose not given here
[5] = target: T1, hBCMA-ECD-Fc (fusion protein of human …); experiment: ELISA, purified hybridoma antibody
[6] = target: T4, cynoBCMA-ECD-Fc (machin BCMA …); experiment: ELISA, purified hybridoma antibody
[7] = target: T3, Recombinant human TACI/TNFRSF13B Fc …; experiment: ELISA, purified hybridoma antibody
[8] = target: T1, hBCMA-ECD-Fc (fusion protein of human …); experiment: ELISA, chimeric antibody supernatant; further: test concentration or dose not given here
[9] = target: T2, human BCMA on cells (L-BCMA+, …); experiment: FACS, chimeric antibody supernatant, L-BCMA+ cells; further: test concentration or dose not given here

| Binder | ELISA (OD450 nm) [1] [OD450] | ELISA (OD450 nm) [2] [OD450] | ELISA (OD450 nm) [3] [OD450] | FACS (MFI) [4] [MFI] | EC50 [5] [nM] | EC50 [6] [nM] | binding result [7] | ELISA (OD450 nm) [8] [OD450] | FACS (MFI) [9] [MFI] |
| --- | --- | --- | --- | --- | --- | --- | --- | --- | --- |
| B1 | 3.68 | 3.65 | 0.14 | 1930 | 0.032 | 0.23 | no binding | – | – |
| B2 | 3.06 | 3.37 | 0.13 | 358 | – | – | – | – | – |
| B3 | 3.37 | 3.48 | 0.13 | 1140 | 0.033 | 0.033 | no binding | – | – |
| B4 | – | – | – | – | – | – | – | 2.3 | 2180 |
| B5 | 3.51 | 3.58 | – | 4650 | – | – | – | – | – |
| B6 | – | – | – | – | – | – | – | 2.45 | 525 |
| B7 | 3.34 | 3.4 | 0.24 | 2920 | 0.17 | 0.15 | no binding | – | – |
| B8 | 3.26 | 3.4 | 0.2 | 1510 | 0.15 | 0.17 | no binding | – | – |
| B9 | 3.53 | 3.5 | – | 5180 | – | – | – | – | – |
| B10 | 3.9 | 0.18 | 0.14 | 3890 | 0.15 | – | – | – | – |
| B11 | – | – | – | – | – | – | – | 0.09 | 37.5 |
| B12 | – | 3.31 | 0.23 | – | – | – | no binding | – | – |
| B13 | 3.57 | 3.41 | 0.57 | 2890 | 0.18 | 0.18 | no binding | – | – |
| B14 | 2.9 | 1.95 | 0.08 | 3880 | 0.034 | – | no binding | – | – |
| B15 | – | – | – | – | – | – | – | 2.35 | 3470 |
| B16 | 3.6 | 3.53 | 0.12 | 762 | 0.058 | 0.062 | no binding | – | – |
| B17 | 3.42 | 0.18 | 0.1 | 1960 | 0.038 | – | no binding | – | – |
| B18 | – | – | – | – | – | – | – | 2.39 | 1800 |
